In the supplement of paper PMC7877785:
± gives the uncertainty stated by the source.

Assay: self-splicing fitness, log relative to wild type (ln ratio); higher = more splicing; Tetrahymena group I intron in knt gene, E. coli kanamycin selection, DiMSum; sequences stand for … in CUCUCU…GGAGGGAAAAGUUAUCAGGCAUGCACCUGGUAGCUAGUCUUUAAACCAAUAGAUUGCAUCGGUUUAAAAGGCAAGACCGUCAAAUUGCGGGAAAGGGGUCAACAGCCGUUCAGUACCAAGUCUCAGGGGAAACUUUGAGAUGGCCUUGCAAAGGGUAUGGUAAUAAGCUGACGGACAUGGUCCUAACCACGCAGCCAAGUCCUAAGUCAACAGAUCUUCUGUUGAUAUGGAUGCAGUUCACAGACUAAAUGUCGGUCGGGGAAGAUGUAUUCUUCUCAUAAGAUAUAGUCGGACCUCUCCUUAAUGGGAGCUAGCGGAUGAAGUGAUGCAACACUGGAGCCGCUGGGAACUAAUUUGUAUGCGAAAGUAUAUUGAUUAGUUUUGGAGUACUCGUGGUCG
Outline: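 Pooled colonies went to amplicon sequencing on an Illumina HiSeq 2500 after six replicate transformations. The plates were LB agar with 100 μg/mL carbenicillin, 50 μM IPTG and 0.2% rhamnose, with or without 25 μg/mL kanamycin, incubated overnight at 37°C or 30°C. The E. coli BL21(DE3) library had all eight P1ex-region intron nucleotides randomised, the intron placed in the knt kanamycin-resistance gene on pET-22b(+). DiMSum fitness is the error-weighted combination of replicate fold changes, kanamycin against none, normalised to wild type.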

Sequence | self-splicing fitness (ln) (30 °C) | self-splicing fitness (ln) (37 °C)
CCUCAGCAAUAUUACGCGAU | -4.95 ± 0.38 | -2.63 ± 0.22
CCUCAGCAAUAUUACGCUAU | -4.26 ± 0.43 | -2.22 ± 0.28
CCUCAGCAAUAUUACGGAGC | -4.55 ± 0.3 | -2.91 ± 0.19
CCUCAGCAAUAUUACGGCUG | -3.84 ± 0.21 | -2.36 ± 0.18
CCUCAGCAAUAUUACGUAGU | -2.16 ± 0.066 | -0.762 ± 0.075
CCUCAGCAAUAUUACGUCGG | -3.36 ± 0.16 | -2.59 ± 0.19
CCUCAGCAAUAUUACGUGCC | -2.39 ± 0.17 | -2.39 ± 0.31
CCUCAGCAAUAUUACGUUGG | -3.17 ± 0.13 | -3.24 ± 0.21
CCUCAGCAAUAUUACGUUUG | -1.46 ± 0.093 | -2.15 ± 0.14
CCUGAGCAAUAUUACGAAAG | -2.39 ± 0.22 | -2.08 ± 0.23
CCUGAGCAAUAUUACGAAUG | -2.21 ± 0.18 | -1.7 ± 0.19
CCUGAGCAAUAUUACGAGAG | -3.7 ± 0.26 | -0.438 ± 0.1
CCUGAGCAAUAUUACGAGUU | -3.99 ± 0.39 | 
CCUGAGCAAUAUUACGAUUA |  | -2.35 ± 0.33
CCUGAGCAAUAUUACGCAUU | -4.02 ± 0.25 | -1.86 ± 0.23
CCUGAGCAAUAUUACGCGCA | -2.95 ± 0.34 | -1.11 ± 0.37
CCUGAGCAAUAUUACGCGCG | -3.05 ± 0.21 | -3.29 ± 0.26
CCUGAGCAAUAUUACGCGGA | -2.9 ± 0.25 | -1.17 ± 0.18
CCUGAGCAAUAUUACGCUGA | -2.59 ± 0.31 | -2.56 ± 0.35
CCUGAGCAAUAUUACGGAUA | -3.44 ± 0.32 | -1.92 ± 0.23
CCUGAGCAAUAUUACGGCUG | -4.49 ± 0.31 | -1.76 ± 0.2
CCUGAGCAAUAUUACGGCUU | -3.73 ± 0.29 | -3.02 ± 0.27

Sequence | self-splicing fitness (ln) (30 °C) | self-splicing fitness (ln) (37 °C)
CCUGAGCAAUAUUACGGUAC | -4.34 ± 0.34 | 
CCUGAGCAAUAUUACGGUAU | -3.02 ± 0.16 | -2.61 ± 0.21
CCUGAGCAAUAUUACGGUCG | -3.95 ± 0.19 | -2.97 ± 0.19
CCUGAGCAAUAUUACGGUGA | -4 ± 0.3 | -2.64 ± 0.26
CCUGAGCAAUAUUACGGUUA | -2.13 ± 0.22 | -2.96 ± 0.22
CCUGAGCAAUAUUACGUCAU | -3.5 ± 0.15 | -2.68 ± 0.18
CCUGAGCAAUAUUACGUGAC | -3.82 ± 0.25 | -2.17 ± 0.22
CCUGAGCAAUAUUACGUGGU | -3.09 ± 0.16 | -2.94 ± 0.21
CCUGAGCAAUAUUACGUGUA | -3.53 ± 0.2 | -2.16 ± 0.2
CCUGAGCAAUAUUACGUUGU | -3.57 ± 0.2 | -2.73 ± 0.23
CCUGAGCAAUAUUACGUUUG | -3.6 ± 0.22 | -2.21 ± 0.18
CCUGAGCAAUAUUACGUUUU | -3.74 ± 0.23 | -2.81 ± 0.25
CCUUAGCAAUAUUACGACUC | -3.05 ± 0.15 | -2.49 ± 0.2
CCUUAGCAAUAUUACGAGAA | -2.19 ± 0.38 | -2.79 ± 0.47
CCUUAGCAAUAUUACGAGCU | -4 ± 0.33 | -2.74 ± 0.29
CCUUAGCAAUAUUACGAUAA | -3.53 ± 0.25 | -2.88 ± 0.27
CCUUAGCAAUAUUACGAUCU | -4.14 ± 0.39 | -2.88 ± 0.2
CCUUAGCAAUAUUACGAUGU | -2.14 ± 0.13 | -1.49 ± 0.16
CCUUAGCAAUAUUACGAUUA | -2.28 ± 0.28 | -2.61 ± 0.32
CCUUAGCAAUAUUACGCAAG |  | -3.09 ± 0.33
CCUUAGCAAUAUUACGCAAU | -3.51 ± 0.23 | -1.47 ± 0.23
